The test system of series [1] is HeLa Kyoto. The experiment in a line: melting temperature (median over replicates), in situ; higher = more thermally stable.
Series [2] has as its system HeLa Kyoto. Kind of series: solubility in G1/S (NP-40 vs SDS abundance) (log2 ratio); higher = more soluble. Conditions: cell cycle stage: G1/S.
Series [3] deals with HeLa Kyoto. The experiment in a line: solubility change mitosis vs G1/S (difference of NP-40 vs SDS log2 ratios) (log2 ratio difference); higher = more soluble in mitosis.
The subject of series [4] is HeLa Kyoto. The experiment in a line: thermal stability score vs G1/S (z-score of summed log2 fold changes over temperatures); higher = more thermally stable than in G1/S.
[5] abbreviates: cell cycle stage: early G1 (4.5 h after nocodazole release).

The results in this text go back to the supplement of paper PMC5998384.
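For melting temperature (median over replicates), in situ in this document: HeLa Kyoto cells synchronized by double thymidine or nocodazole block, proteins quantified by TMT10plex mass spectrometry, three independent biological replicates.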
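For solubility change mitosis vs G1/S (difference of NP-40 vs SDS log2 ratios) in this document: synchronized HeLa Kyoto cells (double thymidine block for G1/S, nocodazole release for mitosis), protein amounts in NP-40 versus SDS lysates quantified by mass spectrometry, three biological replicates.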
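For solubility in G1/S (NP-40 vs SDS abundance) in this document: HeLa Kyoto cells arrested at G1/S by double thymidine block, proteins quantified by TMT10plex mass spectrometry in mild NP-40 versus SDS extracts, three biological replicates.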
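For thermal stability score vs G1/S (z-score of summed log2 fold changes over temperatures) in this document: synchronized HeLa Kyoto cells, proteins quantified by TMT10plex mass spectrometry, three biological replicates, mitosis taken 0.5 h after nocodazole release, G1/S directly after double thymidine block.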

For “MDGFAGSLDDSISAASTSDVQDRLSALESRVQQQEDEITVLKAALADVLRRLAISEDHVASVKKSVSSKGQPSPRAVIPMSCITNGSGANRKPSHTSAVSIAGKETLSSAAKSGTEKKKEKPQGQREKKEESHSNDQSPQIRASPSPQPSSQPLQIHRQTPESKNATPTKSIKRPSPAEKSHNSWENSDDSRNKLSKIPSTPKLIPKVTKTADKHKDVIINQEGEYIKMFMRGRPITMFIPSDVDNYDDIRTELPPEKLKLEWAYGYRGKDCRANVYLLPTGKIVYFIASVVVLFNYEERTQRHYLGHTDCVKCLAIHPDKIRIATGQIAGVDKDGRPLQPHVRVWDSVTLSTLQIIGLGTFERGVGCLDFSKADSGVHLCIIDDSNEHMLTVWDWQKKAKGAEIKTTNEVVLAVEFHPTDANTIITCGKSHIFFWTWSGNSLTRKQGIFGKYEKPKFVQCLAFLGNGDVLTGDSGGVMLIWSKTTVEPTPGKGPKGVYQISKQIKAHDGSVFTLCQMRNGMLLTGGGKDRKIILWDHDLNPEREIEVPDQYGTIRAVAEGKADQFLVGTSRNFILRGTFNDGFQIEVQGHTDELWGLATHPFKDLLLTCAQDRQVCLWNSMEHRLEWTRLVDEPGHCADFHPSGTVVAIGTHSGRWFVLDAETRDLVSIHTDGNEQLSVMRYSIDGTFLAVGSHDNFIYLYVVSENGRKYSRYGRCTGHSSYITHLDWSPDNKYIMSNSGDYEILYWDIPNGCKLIRNRSDCKDIDWTTYTCVLGFQVFGVWPEGSDGTDINALVRSHNRKVIAVADDFCKVHLFQYPCSKAKAPSHKYSAHSSHVTNVSFTHNDSHLISTGGKDMSIIQWKLVEKLSLPQNETVADTTLTKAPVSSTESVIQSNTPTPPPSQPLNETAEEESRISSSPTLLENSLEQTVEPSEDHSEEESEEGSGDLGEPLYEEPCNEISKEQAKATLLEDQQDPSPSS [EML4]”, the melting temperature in the series on HeLa Kyoto [1] (cell cycle stage: G1/S) is 51 °C; in the series with HeLa Kyoto [1] (cell cycle stage: mitosis), 50.3 °C. For the same sequence, the “solubility in G1/S (log2)” value in the series on HeLa Kyoto [2] is -0.0517. The “solubility change mitosis (log2)” value with HeLa Kyoto [3] is -0.0416. The thermal stability score with HeLa Kyoto [4] (setting [5]) was -1.11; in the series on HeLa Kyoto [4] (cell cycle stage: mitosis) it was -1.34.
Regarding “MDGGDDGNLIIKKRFVSEAELDERRKRRQEEWEKVRKPEDPEECPEEVYDPRSLYERLQEQKDRKQQEYEEQFKFKNMVRGLDEDETNFLDEVSRQQELIEKQRREEELKELKEYRNNLKKVGISQENKKEVEKKLTVKPIETKNKFSQAKLLAGAVKHKSSESGNSVKRLKPDPEPDDKNQEPSSCKSLGNTSLSGPSIHCPSAAVCIGILPGLGAYSGSSDSESSSDSEGTINATGKIVSSIFRTNTFLEAP [FAM192A]”, the melting temperature with HeLa Kyoto [1] (cell cycle stage: G1/S) was 57.6 °C. Moreover, the “solubility in G1/S (log2)” value in the series on HeLa Kyoto [2] is 0.194. Besides, the “solubility change mitosis (log2)” value with HeLa Kyoto [3] was -0.000768. In addition, the figures for the thermal stability score in the series on HeLa Kyoto [4] (setting [5]) and with HeLa Kyoto [4] (cell cycle stage: mitosis) were -1.68 and -2.27, respectively.
As for “MDGIVTEVAVGVKRGSDELLSGSVLSSPNSNMSSMVVTANGNDSKKFKGEDKMDGAPSRVLHIRKLPGEVTETEVIALGLPFGKVTNILMLKGKNQAFLELATEEAAITMVNYYSAVTPHLRNQPIYIQYSNHKELKTDNTLNQRAQAVLQAVTAVQTANTPLSGTTVSESAVTPAQSPVLRIIIDNMYYPVTLDVLHQIFSKFGAVLKIITFTKNNQFQALLQYGDPVNAQQAKLALDGQNIYNACCTLRIDFSKLVNLNVKYNNDKSRDYTRPDLPSGDGQPALDPAIAAAFAKETSLLAVPGALSPLAIPNAAAAAAAAAAGRVGMPGVSAGGNTVLLVSNLNEEMVTPQSLFTLFGVYGDVQRVKILYNKKDSALIQMADGNQSQLAMNHLNGQKMYGKIIRVTLSKHQTVQLPREGLDDQGLTKDFGNSPLHRFKKPGSKNFQNIFPPSATLHLSNIPPSVAEEDLRTLFANTGGTVKAFKFFQDHKMALLQMATVEEAIQALIDLHNYNLGENHHLRVSFSKSTI [PTBP2]”, the melting temperature came to 48.8 °C in the series with HeLa Kyoto [1] (cell cycle stage: G1/S) and 49 °C with HeLa Kyoto [1] (cell cycle stage: mitosis). Also, the “solubility in G1/S (log2)” value in the series on HeLa Kyoto [2] came out at 0.308. Besides, the “solubility change mitosis (log2)” value in the series on HeLa Kyoto [3] was -0.0237. Further, the thermal stability score with HeLa Kyoto [4] (setting [5]) stood at 0.234; in the series with HeLa Kyoto [4] (cell cycle stage: mitosis) it was 0.47.
For the sequence “MDGKRRPGPGPGVPPKRARGGLWDDDDAPRPSQFEEDLALMEEMEAEHRLQEQEEEELQSVLEGVADGQVPPSAIDPRWLRPTPPALDPQTEPLIFQQLEIDHYVGPAQPVPGGPPPSRGSVPVLRAFGVTDEGFSVCCHIHGFAPYFYTPAPPGFGPEHMGDLQRELNLAISRDSRGGRELTGPAVLAVELCSRESMFGYHGHGPSPFLRITVALPRLVAPARRLLEQGIRVAGLGTPSFAPYEANVDFEIRFMVDTDIVGCNWLELPAGKYALRLKEKATQCQLEADVLWSDVVSHPPEGPWQRIAPLRVLSFDIECAGRKGIFPEPERDPVIQICSLGLRWGEPEPFLRLALTLRPCAPILGAKVQSYEKEEDLLQAWSTFIRIMDPDVITGYNIQNFDLPYLISRAQTLKVQTFPFLGRVAGLCSNIRDSSFQSKQTGRRDTKVVSMVGRVQMDMLQVLLREYKLRSYTLNAVSFHFLGEQKEDVQHSIITDLQNGNDQTRRRLAVYCLKDAYLPLRLLERLMVLVNAVEMARVTGVPLSYLLSRGQQVKVVSQLLRQAMHEGLLMPVVKSEGGEDYTGATVIEPLKGYYDVPIATLDFSSLYPSIMMAHNLCYTTLLRPGTAQKLGLTEDQFIRTPTGDEFVKTSVRKGLLPQILENLLSARKRAKAELAKETDPLRRQVLDGRQLALKVSANSVYGFTGAQVGKLPCLEISQSVTGFGRQMIEKTKQLVESKYTVENGYSTSAKVVYGDTDSVMCRFGVSSVAEAMALGREAADWVSGHFPSPIRLEFEKVYFPYLLISKKRYAGLLFSSRPDAHDRMDCKGLEAVRRDNCPLVANLVTASLRRLLIDRDPEGAVAHAQDVISDLLCNRIDISQLVITKELTRAASDYAGKQAHVELAERMRKRDPGSAPSLGDRVPYVIISAAKGVAAYMKSEDPLFVLEHSLPIDTQYYLEQQLAKPLLRIFEPILGEGRAEAVLLRGDHTRCKTVLTGKVGGLLAFAKRRNCCIGCRTVLSHQGAVCEFCQPRESELYQKEVSHLNALEERFSRLWTQCQRCQGSLHEDVICTSRDCPIFYMRKKVRKDLEDQEQLLRRFGPPGPEAW [POLD1]”, the melting temperature is 48.3 °C with HeLa Kyoto [1] (cell cycle stage: G1/S) and 49.1 °C in the series on HeLa Kyoto [1] (cell cycle stage: mitosis). Besides, in the series with HeLa Kyoto [2], the “solubility in G1/S (log2)” value is -0.0376. Besides, the “solubility change mitosis (log2)” value in the series with HeLa Kyoto [3] was -0.101. The thermal stability score in the series on HeLa Kyoto [4] (setting [5]) was 5.56; with HeLa Kyoto [4] (cell cycle stage: mitosis), 6.68.
